US20200255519A1 (University of California, published 2020)
Substitutions are numbered along the chain they refer to.

B1: Fab AZ1 (Fab)
heavy: EISEVQLVESGGGLVQPGGSLRLSCAASGFNLSYSSMHWVRQAPGKGLEWVASISPYSSYTSYADSVKGRFTISADTSKNTAYLQMNSLRAEDTAVYYCARGWVGMDYWGQGTLVTVSSASTKGPSVFPLAPSSKSTSGGTAALGCLVKDYFPEPVTVSWNSGALTSGVHTFPAVLQSSGLYSLSSVVTVPSSSLGTQTYICNVNHKPSNTKVDKKVEPKSCDKTHTGGSHHHHHH
light: SDIQMTQSPSSLSASVGDRVTITCRASQSVSSAVAWYQQKPGKAPKLLIYSASSLYSGVPSRFSGSRSGTDFTLTISSLQPEDFATYYCQQYYWGFPSLFTFGQGTKVEIKRTVAAPSVFIFPPSDSQLKSGTASVVCLLNNFYPREAKVQWKVDNALQSGNSQESVTEQDSKDSTYSLSSTLTLSKADYEKHKVYACEVTHQGLSSPVTKSFNRGECGGSDYKDDDDK
notes: Purified Fab from E. coli; The scaffold tags are kept
B2: Fab AZ2 (Fab)
heavy: EISEVQLVESGGGLVQPGGSLRLSCAASGFNIYSYYMHWVRQAPGKGLEWVAYISPYYSYTSYADSVKGRFTISADTSKNTAYLQMNSLRAEDTAVYYCARGYPWYGMDYWGQGTLVTVSSASTKGPSVFPLAPSSKSTSGGTAALGCLVKDYFPEPVTVSWNSGALTSGVHTFPAVLQSSGLYSLSSVVTVPSSSLGTQTYICNVNHKPSNTKVDKKVEPKSCDKTHTGGSHHHHHH
light: B1 light with Y92V, Y93S, G95A, F96Y, S98Y, F100I
notes: Purified Fab; graft limits inferred
B3: Fab AZ3 (Fab)
heavy: EISEVQLVESGGGLVQPGGSLRLSCAASGFNIYYSYMHWVRQAPGKGLEWVASISPYSSYTSYADSVKGRFTISADTSKNTAYLQMNSLRAEDTAVYYCARYGYSYYYYGALDYWGQGTLVTVSSASTKGPSVFPLAPSSKSTSGGTAALGCLVKDYFPEPVTVSWNSGALTSGVHTFPAVLQSSGLYSLSSVVTVPSSSLGTQTYICNVNHKPSNTKVDKKVEPKSCDKTHTGGSHHHHHH
light: SDIQMTQSPSSLSASVGDRVTITCRASQSVSSAVAWYQQKPGKAPKLLIYSASSLYSGVPSRFSGSRSGTDFTLTISSLQPEDFATYYCQQGWSGPWLITFGQGTKVEIKRTVAAPSVFIFPPSDSQLKSGTASVVCLLNNFYPREAKVQWKVDNALQSGNSQESVTEQDSKDSTYSLSSTLTLSKADYEKHKVYACEVTHQGLSSPVTKSFNRGECGGSDYKDDDDK
notes: as for B2
B4: Fab AZ6 (Fab)
heavy: EISEVQLVESGGGLVQPGGSLRLSCAASGFNLSYSYIHWVRQAPGKGLEWVASIYSSSGSTYYADSVKGRFTISADTSKNTAYLQMNSLRAEDTAVYYCARGSHAHGWAWFWYGMDYWGQGTLVTVSSASTKGPSVFPLAPSSKSTSGGTAALGCLVKDYFPEPVTVSWNSGALTSGVHTFPAVLQSSGLYSLSSVVTVPSSSLGTQTYICNVNHKPSNTKVDKKVEPKSCDKTHTGGSHHHHHH
light: SDIQMTQSPSSLSASVGDRVTITCRASQSVSSAVAWYQQKPGKAPKLLIYSASSLYSGVPSRFSGSRSGTDFTLTISSLQPEDFATYYCQQSSYSLITFGQGTKVEIKRTVAAPSVFIFPPSDSQLKSGTASVVCLLNNFYPREAKVQWKVDNALQSGNSQESVTEQDSKDSTYSLSSTLTLSKADYEKHKVYACEVTHQGLSSPVTKSFNRGECGGSDYKDDDDK
notes: as for B2
B5: Fab AZ7 (Fab)
heavy: EISEVQLVESGGGLVQPGGSLRLSCAASGFNLSSYSMHWVRQAPGKGLEWVASIYSYYGSTSYADSVKGRFTISADTSKNTAYLQMNSLRAEDTAVYYCARYSPWVYYPYYGWYSGMDYWGQGTLVTVSSASTKGPSVFPLAPSSKSTSGGTAALGCLVKDYFPEPVTVSWNSGALTSGVHTFPAVLQSSGLYSLSSVVTVPSSSLGTQTYICNVNHKPSNTKVDKKVEPKSCDKTHTGGSHHHHHH
light: B4 light
notes: as for B2
B6: Fab AZ5 (Fab)
heavy: EISEVQLVESGGGLVQPGGSLRLSCAASGFNLYYYYIHWVRQAPGKGLEWVASIYPSYGSTYYADSVKGRFTISADTSKNTAYLQMNSLRAEDTAVYYCARASVWFGWYVPSAMDYWGQGTLVTVSSASTKGPSVFPLAPSSKSTSGGTAALGCLVKDYFPEPVTVSWNSGALTSGVHTFPAVLQSSGLYSLSSVVTVPSSSLGTQTYICNVNHKPSNTKVDKKVEPKSCDKTHTGGSHHHHHH
light: SDIQMTQSPSSLSASVGDRVTITCRASQSVSSAVAWYQQKPGKAPKLLIYSASSLYSGVPSRFSGSRSGTDFTLTISSLQPEDFATYYCQQWPGWYPITFGQGTKVEIKRTVAAPSVFIFPPSDSQLKSGTASVVCLLNNFYPREAKVQWKVDNALQSGNSQESVTEQDSKDSTYSLSSTLTLSKADYEKHKVYACEVTHQGLSSPVTKSFNRGECGGSDYKDDDDK
notes: as for B2

Assays:
[1] = target: biotinylated C-terminally truncated BCL-xL (residues 2-215), no ligand (DMSO vehicle) (human) (UniProt Q07817); assay: BLI (Octet), biotinylated BCL-xL on streptavidin sensor, Fab as analyte, no ABT-737
biotinylated C-terminally truncated BCL-xL (residues 2-215), no ligand (DMSO vehicle) (human), sequence (Q07817 2-215): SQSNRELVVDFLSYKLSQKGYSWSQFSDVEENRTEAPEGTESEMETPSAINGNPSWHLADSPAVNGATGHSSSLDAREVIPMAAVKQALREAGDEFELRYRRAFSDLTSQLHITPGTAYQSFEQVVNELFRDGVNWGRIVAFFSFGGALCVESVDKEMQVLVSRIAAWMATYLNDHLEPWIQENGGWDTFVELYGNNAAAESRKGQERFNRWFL

[2] = target: T1, BCL-xL/Bak-peptide complex: biotinylated BCL-xL (residues 2-215) in the presence of 5 µM Bak peptide (human, UniProt Q07817 2-215, biotin on the N-terminal AviTag); assay: biolayer interferometry, immobilized BCL-xL, 100 nM Fab with 5 µM Bak peptide
T1 construct: Bak peptide bought from Anaspec (AS-61616); not shown: N-terminal tags (pMCSG7 vector tag used for Ni-NTA, AviTag, TEV cut site)
T1 sequence (Q07817 2-215, one chain of several): as the sequence (Q07817 2-215) above

[3] = target: T2, BCL-xL/ABT-737 complex: biotinylated BCL-xL (residues 2-215) in the presence of 1 µM ABT-737 (human, UniProt Q07817 2-215, biotin on the N-terminal AviTag; small molecule ABT-737 bound non-covalently); assay: ELISA, biotinylated BCL-xL captured on NeutrAvidin, Fab titrated with 1 µM ABT-737, anti-Fab-HRP detection
T2 construct: Same protein as m1; not shown: N-terminal tags (pMCSG7 vector tag used for Ni-NTA, AviTag, TEV cut site)
T2 sequence (Q07817 2-215, one chain of several): as the sequence (Q07817 2-215) above

[4] = target: T2, BCL-xL/ABT-737 complex: biotinylated …; assay: ELISA, biotinylated BCL-xL captured on NeutrAvidin, Fab titrated with 1 µM ABT-737, anti-Fab-HRP detection [continued]
[5] = target: T3, biotinylated C-terminally truncated BCL-xL (residues 2-215), no ligand (DMSO vehicle) (human, UniProt Q07817 2-215, biotin on the N-terminal AviTag); assay: ELISA, biotinylated BCL-xL captured on NeutrAvidin, Fab titrated with 0.05% DMSO (no ABT-737), anti-Fab-HRP detection [continued]
T3 construct: also called apo BCL-xL; not shown: N-terminal tags (pMCSG7 vector tag used for Ni-NTA, AviTag, TEV cut site)
T3 sequence (Q07817 2-215): as above

Binder | Kd [1] [nM] | binding result [2] | EC50 (read off the curve) [3] [nM] | binding result [4] | binding result [5]
B1 | > 5000 | no binding (tested: 100 nM) | – | – | –
B2 | > 5000 | no binding (tested: 100 nM) | ~2 | – | –
B3 | > 5000 | no binding (tested: 100 nM) | ~7 | – | –
B4 | – | – | – | binds | binds
B5 | – | – | – | binds | binds
B6 | – | – | – | binds | binds
